# “Also recorded” adds a separate entry of the source.
# Target: T1, fibrin (Mus musculus, UniProt E9PV24+Q8K0E8+Q8VCM7)
# T1 construct: from tissue; host or cells: citrated mouse plasma, diluted tenfold
# T1 sequence (Q8VCM7 26-436): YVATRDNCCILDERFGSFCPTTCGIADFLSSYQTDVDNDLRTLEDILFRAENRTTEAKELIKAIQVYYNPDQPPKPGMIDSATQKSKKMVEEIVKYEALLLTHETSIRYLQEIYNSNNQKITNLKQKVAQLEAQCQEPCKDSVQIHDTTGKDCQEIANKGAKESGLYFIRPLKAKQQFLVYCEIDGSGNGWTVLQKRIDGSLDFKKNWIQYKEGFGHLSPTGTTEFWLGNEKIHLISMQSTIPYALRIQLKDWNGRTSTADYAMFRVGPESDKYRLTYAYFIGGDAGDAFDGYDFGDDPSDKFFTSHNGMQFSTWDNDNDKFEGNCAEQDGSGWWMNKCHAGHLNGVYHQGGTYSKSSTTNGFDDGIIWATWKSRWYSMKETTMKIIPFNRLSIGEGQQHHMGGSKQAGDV
# T1 sequence (E9PV24 37-789 limits assumed): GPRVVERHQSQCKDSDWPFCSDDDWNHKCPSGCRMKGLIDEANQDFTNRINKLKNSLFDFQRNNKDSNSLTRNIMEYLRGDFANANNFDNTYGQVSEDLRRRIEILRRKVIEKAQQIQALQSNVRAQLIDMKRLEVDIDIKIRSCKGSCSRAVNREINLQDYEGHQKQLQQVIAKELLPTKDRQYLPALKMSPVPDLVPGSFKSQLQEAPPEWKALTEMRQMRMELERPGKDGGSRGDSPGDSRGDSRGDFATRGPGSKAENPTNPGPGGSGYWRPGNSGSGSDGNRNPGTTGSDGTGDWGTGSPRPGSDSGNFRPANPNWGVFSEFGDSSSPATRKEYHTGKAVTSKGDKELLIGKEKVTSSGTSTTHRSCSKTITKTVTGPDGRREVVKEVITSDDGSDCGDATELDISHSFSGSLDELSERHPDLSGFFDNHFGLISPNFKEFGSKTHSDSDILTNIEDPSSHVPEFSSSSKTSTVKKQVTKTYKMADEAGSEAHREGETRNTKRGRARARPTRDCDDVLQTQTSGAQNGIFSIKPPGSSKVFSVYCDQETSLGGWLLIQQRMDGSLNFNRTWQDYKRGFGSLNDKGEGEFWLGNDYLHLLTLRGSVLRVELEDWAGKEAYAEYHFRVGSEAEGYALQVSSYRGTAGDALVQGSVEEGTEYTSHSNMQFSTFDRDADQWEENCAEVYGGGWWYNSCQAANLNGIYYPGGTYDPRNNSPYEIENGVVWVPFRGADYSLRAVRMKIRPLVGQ
# T1 sequence (Q8K0E8 35-481 limits assumed): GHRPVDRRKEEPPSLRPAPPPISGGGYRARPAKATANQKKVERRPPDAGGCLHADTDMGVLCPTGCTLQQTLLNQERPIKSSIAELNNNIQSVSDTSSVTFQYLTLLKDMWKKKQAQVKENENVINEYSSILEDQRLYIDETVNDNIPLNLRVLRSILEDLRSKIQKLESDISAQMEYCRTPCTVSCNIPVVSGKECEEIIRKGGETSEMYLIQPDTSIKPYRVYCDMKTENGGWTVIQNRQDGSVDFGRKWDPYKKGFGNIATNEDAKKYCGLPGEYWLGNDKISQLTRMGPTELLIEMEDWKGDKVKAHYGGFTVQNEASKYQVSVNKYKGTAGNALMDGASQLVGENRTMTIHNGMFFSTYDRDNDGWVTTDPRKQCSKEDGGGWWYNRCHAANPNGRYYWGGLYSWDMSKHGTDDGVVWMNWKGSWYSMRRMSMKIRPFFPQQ
# Test: In vitro fibrin polymerization turbidity assay in plasma
# Format: biochemical
# Details: citrate plasma, bovine thrombin 0.2 U/ml, OD350
# Procedure: Hematological Analyses. Citrated plasma was prepared from mice administered intranasally 30 μg or 90 μg of γ^377-395 peptide or saline control daily for seven days. Plasma clotting times were measured by combining 10 μl of citrated plasma with 10 μl of 2 U/ml bovine thrombin (Enzyme Research Laboratories, South Bend, Ind., USA) and 40 mM. CaCl2 in a weigh boatfloating in a 37° C. water bath. Time to clot was determined by mixing with a toothpick. Plasma thrombin times were established as described previously (15). Fibrin polymerization was evaluated by standard turbidity assays using plasma. Briefly, citrate plasma (diluted tenfold in 20 mM HEPES, pH 7.4, containing 0.15 M NaCl and 5 mM-amino caproic acid) was combined with bovine thrombin (final concentration 0.2 U/ml; Enzyme Research Laboratories, South Bend, Ind., USA), and Ca^2+ (10 mM), and OD350 measurements were taken every 30 seconds.
substance,measurement,value
tyr-ser-met-lys-lys-thr-thr-met-lys-ile-ile-pro-phe-asn-arg-leu-thr-ile-gly (YSMKKTTMKIIPFNRLTIG) (listed as Homo sapiens) [γ^377-395 peptide],effect on fibrin polymerization,did not alter; also recorded: had no effect

# — US8569242B2, “Method of treating degenerative disorders of the nervous system” (The Regents of the University of California, priority 2005, dated 2013)
